Data published in the supplement of paper PMC9876800.

Tested on: peptide library, one residue held at a place counted from the S/T acceptor
Assay: relative phosphorylation of the sub-library (ratio to the mean residue at this position); higher = residue favoured
Conditions: human
Outline: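 Spots on streptavidin membranes were phosphorimaged and quantified by densitometry to measure phosphorylation of biotinylated degenerate peptide sub-libraries by purified recombinant kinases, human or orthologue constructs. The reactions ran in 384-well plates for 90 min under kinase-specific conditions, with peptides at 50 μM and 50 μM ATP spiked with γ-32P-ATP. Relative sub-library phosphorylation is the ratio to the mean residue at that position.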

Sequence of DSTYK, construct: Full length (Q6XUX3 whole entry, looked up): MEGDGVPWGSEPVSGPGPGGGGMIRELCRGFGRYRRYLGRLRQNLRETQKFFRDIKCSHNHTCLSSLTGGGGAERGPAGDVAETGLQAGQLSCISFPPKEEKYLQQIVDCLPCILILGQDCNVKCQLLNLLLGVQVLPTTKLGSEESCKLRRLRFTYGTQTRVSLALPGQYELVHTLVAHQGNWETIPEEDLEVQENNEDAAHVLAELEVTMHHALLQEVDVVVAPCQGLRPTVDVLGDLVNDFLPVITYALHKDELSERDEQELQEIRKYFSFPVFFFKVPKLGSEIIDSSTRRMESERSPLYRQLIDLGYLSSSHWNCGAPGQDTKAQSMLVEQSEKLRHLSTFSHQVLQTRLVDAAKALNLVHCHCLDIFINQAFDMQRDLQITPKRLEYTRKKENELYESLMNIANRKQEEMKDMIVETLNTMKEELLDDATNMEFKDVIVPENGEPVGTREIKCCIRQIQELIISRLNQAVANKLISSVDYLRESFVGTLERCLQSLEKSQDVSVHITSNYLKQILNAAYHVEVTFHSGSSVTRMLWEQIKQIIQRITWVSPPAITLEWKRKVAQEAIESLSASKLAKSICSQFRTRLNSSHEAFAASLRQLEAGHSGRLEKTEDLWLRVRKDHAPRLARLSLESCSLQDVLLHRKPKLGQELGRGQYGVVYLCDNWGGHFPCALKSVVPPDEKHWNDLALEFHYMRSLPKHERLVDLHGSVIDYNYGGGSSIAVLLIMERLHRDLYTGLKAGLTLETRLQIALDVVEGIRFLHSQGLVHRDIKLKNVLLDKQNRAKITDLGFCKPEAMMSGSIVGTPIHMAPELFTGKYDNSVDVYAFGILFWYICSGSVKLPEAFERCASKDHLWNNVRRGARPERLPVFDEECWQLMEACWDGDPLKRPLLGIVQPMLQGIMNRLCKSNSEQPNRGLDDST
Sequence of MAPK15, construct: Full length (Q8TD08 whole entry, looked up): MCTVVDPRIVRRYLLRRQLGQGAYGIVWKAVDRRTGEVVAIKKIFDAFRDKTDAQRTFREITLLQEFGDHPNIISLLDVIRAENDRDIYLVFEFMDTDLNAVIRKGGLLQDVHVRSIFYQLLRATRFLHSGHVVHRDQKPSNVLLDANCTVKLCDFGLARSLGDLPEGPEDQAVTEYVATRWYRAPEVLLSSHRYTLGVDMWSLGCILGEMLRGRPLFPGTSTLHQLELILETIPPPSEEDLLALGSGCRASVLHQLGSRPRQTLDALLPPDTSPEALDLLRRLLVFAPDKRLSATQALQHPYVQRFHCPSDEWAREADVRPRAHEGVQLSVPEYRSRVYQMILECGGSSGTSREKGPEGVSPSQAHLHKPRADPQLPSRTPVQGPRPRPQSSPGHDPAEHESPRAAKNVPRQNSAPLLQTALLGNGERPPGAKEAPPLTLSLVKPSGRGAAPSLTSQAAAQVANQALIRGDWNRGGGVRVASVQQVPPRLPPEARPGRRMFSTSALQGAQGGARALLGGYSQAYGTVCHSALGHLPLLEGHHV
Sequence of STK17A, construct: Full length (Q9UEE5 whole entry, looked up): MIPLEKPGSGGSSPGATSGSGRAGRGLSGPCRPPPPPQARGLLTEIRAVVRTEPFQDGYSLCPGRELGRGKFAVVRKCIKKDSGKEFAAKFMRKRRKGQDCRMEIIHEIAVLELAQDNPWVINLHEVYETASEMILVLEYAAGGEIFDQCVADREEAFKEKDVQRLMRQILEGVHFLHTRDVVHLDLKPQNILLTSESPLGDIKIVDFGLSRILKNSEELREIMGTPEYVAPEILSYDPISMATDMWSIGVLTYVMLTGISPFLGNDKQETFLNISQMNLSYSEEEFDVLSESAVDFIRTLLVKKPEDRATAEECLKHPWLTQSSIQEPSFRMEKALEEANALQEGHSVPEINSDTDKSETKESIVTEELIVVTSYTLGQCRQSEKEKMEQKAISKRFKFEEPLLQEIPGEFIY

STK17A, construct: Full length (from UniProt Q9UEE5)
relative phosphorylation
Conditions	at +1	at +2	at +3	at +4	at -1	at -2	at -3	at -4	at -5
A fixed	0.4	0.562	0.679	0.808	0.636	1.04	0.701	0.927	0.979
D fixed	0.954	0.564	0.686	0.86	0.85	0.657	0.799	1.06	0.922
E fixed	0.984	0.612	1.18	0.917	0.967	0.597	0.681	1.09	0.916
F fixed	4.75	0.832	1.05	0.896	1.11	0.943	0.802	0.772	0.876
G fixed	0.63	0.444	0.889	0.868	0.801	1.2	0.868	1.23	1.11
H fixed	0.502	1.83	1.12	1.15	1.16	1.25	1.02	1.03	1.06
I fixed	0.75	0.709	1.49	0.742	0.621	0.491	0.65	0.586	0.721
K fixed	0.498	1.7	1.08	1.49	1.23	1.32	1.28	1.43	1.63
L fixed	0.678	0.732	0.989	0.713	1.24	0.648	0.783	0.62	0.872
M fixed	1.41	0.787	0.984	0.669	1.19	0.892	1.13	0.798	0.837
N fixed	0.558	0.93	0.733	0.988	1.06	1.05	0.902	1	1.06
P fixed	0.251	0.332	0.539	0.952	0.589	0.673	0.888	0.979	0.993
Q fixed	1.66	1.09	0.815	1	0.931	0.934	0.989	0.782	0.704
R fixed	0.494	2.6	1.17	1.7	1.18	1.8	2.58	1.32	1.38
V fixed	0.53	0.708	1.04	0.693	0.721	0.638	0.56	0.73	0.829
W fixed	0.974	1.16	1.2	1.33	1.07	1.83	1.43	1.81	1.16
Y fixed	0.972	1.41	1.37	1.23	1.64	1.04	0.945	0.842	0.947
pThr fixed	6.24	3.31	1.2	1.45	0.813	0.788	0.9	0.977	0.971
pTyr fixed	1.4	1.6	3.08	1.39	1.61	0.941	1.06	1.17	0.918

DSTYK, construct: Full length (from UniProt Q6XUX3)
relative phosphorylation
Conditions	at +1	at +2	at +3	at +4	at -1	at -2	at -3	at -4	at -5
A fixed	0.815	1.14	0.976	1.07	1.15	0.947	0.937	1.05	1.27
D fixed	0.5	0.992	0.68	0.984	1.7	2.48	1.41	1.8	1.74
E fixed	0.639	1.52	0.934	1.05	2	2.13	0.887	1.52	1.43
F fixed	1.11	0.465	1.04	0.754	0.584	0.828	2.04	1.12	0.944
G fixed	1.19	0.729	0.872	1.12	0.813	1.11	0.697	1.34	1.31
H fixed	0.834	1.08	1.25	0.955	0.924	1.15	1.02	0.96	1.12
I fixed	1.52	0.48	0.915	0.663	0.577	0.701	1.07	0.721	0.619
K fixed	0.434	1.85	1.09	1.29	0.93	0.366	0.453	0.718	1.05
L fixed	1.54	0.461	1.1	0.754	0.97	1.25	1.7	0.862	0.732
M fixed	1.55	0.667	0.977	0.837	0.911	1.1	1.36	0.744	0.698
N fixed	0.878	1.3	0.83	1.11	1.48	1.03	0.676	0.908	0.935
P fixed	0.218	0.587	0.738	1.45	0.324	0.228	0.513	0.777	0.916
Q fixed	1.21	1.29	1.02	1.15	1.31	1.04	0.692	0.793	0.773
R fixed	0.499	2.58	1.3	1.23	1.2	0.467	0.471	0.639	0.835
V fixed	1.65	0.685	1.08	0.734	0.667	0.765	0.6	0.598	0.733
W fixed	0.993	0.595	1.09	1.04	0.682	0.717	1.29	1.63	1.17
Y fixed	1.41	0.569	1.11	0.797	0.774	0.69	1.19	0.819	0.722
pThr fixed	1.23	1.43	0.787	1.09	0.845	1.66	0.996	1.03	1.04
pTyr fixed	2.22	0.801	0.882	0.912	1.84	1.21	1.13	0.961	1.09

MAPK15, construct: Full length (from UniProt Q8TD08)
relative phosphorylation
Conditions	at +1	at +2	at +3	at +4	at -1	at -2	at -3	at -4	at -5
A fixed	1.98	0.19	1.12	1.12	0.933	1.36	1.3	1.04	1.08
D fixed	0.214	0.135	0.665	0.726	0.643	0.632	0.992	0.893	0.987
E fixed	0.31	0.115	0.655	0.643	0.517	0.59	0.941	1.01	0.859
F fixed	1.22	0.19	0.874	0.928	1.08	0.688	0.88	0.875	1.06
G fixed	1.05	0.226	1.2	1.11	0.767	0.947	1.5	1.18	1.09
H fixed	1.41	0.573	0.984	0.976	1.06	0.738	1.04	1.09	1.07
I fixed	0.221	0.173	0.598	0.864	0.897	1.17	0.869	0.869	0.831
K fixed	0.432	0.992	1.61	1.41	1.11	0.651	0.9	0.997	1.26
L fixed	0.27	0.189	0.85	0.95	1.55	1.53	0.985	0.959	0.754
M fixed	0.369	0.17	0.799	0.964	1.28	1.31	0.972	0.951	0.815
N fixed	0.436	0.247	0.863	0.853	0.789	0.944	0.965	1.04	0.89
P fixed	4.86	0.192	1.05	1.11	0.93	2.07	1.1	1.06	1.19
Q fixed	0.578	0.498	0.897	1.02	0.888	1.01	1.02	1.03	1.04
R fixed	1.04	12.5	2.31	1.46	1.23	0.817	0.928	1.1	1.24
V fixed	0.421	0.184	0.792	0.841	0.933	1.13	0.864	0.941	0.914
W fixed	0.758	0.232	0.825	1.17	1.06	0.719	0.88	1.02	0.864
Y fixed	1.44	0.225	0.903	0.866	1.34	0.69	0.872	0.956	1.07
pThr fixed	0.325	0.205	0.653	0.578	0.415	0.772	0.936	0.887	0.904
pTyr fixed	0.601	0.177	0.592	0.512	0.486	0.681	0.862	0.905	1.01

DYRK3, construct: Full length (from UniProt O43781)
relative phosphorylation
Conditions	at +1	at +2	at +3	at +4	at -1	at -2	at -3	at -4	at -5
A fixed	0.74	0.843	0.891	0.767	1.14	1.24	0.635	0.856	0.845
D fixed	0.16	0.894	0.621	0.723	0.447	0.181	0.404	0.698	0.663
E fixed	0.175	0.758	0.613	0.713	0.554	0.207	0.368	0.747	0.656
F fixed	0.266	1.19	1.12	1.31	0.777	0.378	0.422	0.876	1.07
G fixed	0.732	0.679	1.47	1.07	1.13	0.719	1.59	1.01	0.936
H fixed	0.3	1.2	1.27	1.16	0.991	0.556	0.621	0.945	1.12
I fixed	0.513	1.33	0.817	0.973	0.709	0.643	0.418	0.905	1.05
K fixed	0.494	0.7	0.727	0.926	1.42	0.746	0.92	1.1	1.11
L fixed	0.329	1.41	1.23	0.916	0.882	0.651	0.444	0.887	0.892
M fixed	0.337	1.41	1.21	1.35	1.22	0.67	0.467	0.903	0.84
N fixed	0.289	0.883	0.777	0.919	0.783	0.555	0.473	0.71	0.809
P fixed	8.02	0.703	1.93	0.889	1.27	1.93	0.514	0.886	0.898
Q fixed	0.442	0.889	0.834	0.932	1	0.583	0.518	0.688	0.742
R fixed	2.71	1.05	1.09	1.13	2.12	6.5	7.91	3.23	2.49
V fixed	0.987	1.1	0.661	0.785	0.726	0.724	0.357	0.664	0.716
W fixed	0.257	0.91	0.887	1.38	0.64	0.386	0.473	0.964	0.942
Y fixed	0.242	1.04	0.858	1.06	1.18	0.336	0.473	0.928	1.21
pThr fixed	0.328	1.44	0.549	0.977	0.353	0.349	0.492	0.812	0.954
pTyr fixed	0.363	0.759	0.769	0.815	0.735	0.287	0.542	0.74	1.15
